This note sets out measurements from paper PMC11602160.

Assay [1] addresses N_(IDR1-core), N variant with IDR1, RBD and DD in which the 67-residue linker is replaced by a 12-residue GSA-linker (SARS-CoV-2).
Assay [2] has the same target. As to the kind of experiment: ITC; iTC200, 10°C; […]; 20 mM Tris-HCl pH 8.0, 150 mM NaCl, 5% glycerol; […].

In assay [1], “N_(IDR1-core), N variant with IDR1, RBD and DD in which the 67-residue linker is replaced by a 12-residue GSA-linker (domain or fragment)” had a stoichiometry N of 2.

Consider “UPF2S, UPF2 variant comprising the MIF4G3 and the U1BD domains (from UniProt Q9HAU5 761-1227) (domain or fragment)”, for which the Kd in assay [2] turned out to be 2900 nM.
